Test results reported in the DeepSol protein solubility set.

experiment: soluble on expression in E. coli; label from the status in PepcDB or PDB records

| Sequence | soluble on expression in E. coli |
| --- | --- |
| MVVSSKMDIFNELESQVRSYSRSFPTIFTKSKGYKLWDVDGKEYIDFFSGAGALNYGHNDDKMKQVLIDYLLEDGIIHSLDMGTSAKVNFLKHFNKIILEPRDLNYKIMFPGPTGTNSVESALKIARKVTGRTNIISFSNAFHGMSLGSLSITSNHFKRKGAGVPLNNSIIMPYENYLDSLNSLSYLEKVLGDSGSGVALPAAIILETVQGEGGLNTASSQWLKGIDRLCKKYNILLIVDDIQAGCGRTGTFFSFEPASIKPDIICLSKSISGIGLPMAITLIKPEYDKWEPGEHNGTFRGNNLAFLAATEALSYWKDIEFINALKWKSEKITSFLNEICLKYPQLQGEVRGRGFMQGIACNTFGIAKKICSVAFENGLIIETSGPNDEVIKLLPSLTIDLEGLSKGLEMLEDSISTILKEVTH | not soluble |
| GPMELAHREYQAGDFEAAERHCMQLWRQEPDNTGVLLLLSSIHFQCRRLDRSAHFSTLAIKQNPLLAEAYSNLGNVYKERGQLQEAIEHYRHALRLKPDFIDGYINLAAALVAAGDMEGAVQAYVSALQYNPDLYCVRSDLGNLLKALGRLEEAKACYLKAIETQPNFAVAWSNLGCVFNAQGEIWLAIHHFEKAVTLDPNFLDAYINLGNVLKEARIFDRAVAAYLRALSLSPNHAVVHGNLACVYYEQGLIDLAIDTYRRAIELQPHFPDAYCNLANALKEKGSVAEAEDCYNTALRLCPTHADSLNNLANIKREQGNIEEAVRLYRKALEVFPEFAAAHSNLASVLQQQGKLQEALMHYKEAIRISPTFADAYSNMGNTLKEMQD | soluble |
| LGSMESTQQMAVSIINSSFEAAVVAATSALENMGIEYDYQDIYSRVKNKFDFVMDDSGVKNNPIGKAITIDQALNNKFGSAIRNRNWLADTSRPAKLDEDVNKLRMMLSSKGIDQKMRVLNACFSVKRIPGKSSSIIKCTKLMRDKLERGEVEVDDSFVDEKME | soluble |
| MGHHHHHHSHMAAGTLYTYPENWRAFKALIAAQYSGAQVRVLSAPPHFHFGQTNRTPEFLRKFPAGKVPAFEGDDGFCVFESNAIAYYVSNEELRGSTPEAAAQVVQWVSFADSDIVPPASTWVFPTLGIMHHNKQATENAKEEVRRILGLLDAYLKTRTFLVGERVTLADITVVCTLLWLYKQVLEPSFRQAFPNTNRWFLTCINQPQFRAVLGEVKLCEKMAQFDAKKFA | not soluble |
| MENIHDLWERALKSMEKKVSKPSFETWLKQTKANSIEDSTIIITAPNEFARDWLEKHYDELISETIDDLTGVRLYPKFVIPTSQLDEPFVEQELKKPMKQPPAQNGEMPNNMLNDKYTFDTFVIGSGNRFAHAASLAVAEAPAKAYNPLFIYGGVGLGKTHLMHAIGHYVMDHNPNAKVVYLSSEKFTNEFINAIRDNKAVNFRNKYRNVDVLLIDDIQFLAGKEQTQEEFFHTFNALHEDNKQIVISSDRPPKEIPTLEDRLRSRFEWGLITDITPPDLETRIAILRKKAKAENLDIPNEVMLYIANQIDTNIRELEGALIRVVAYSSLINQDMNADLAAEALKDIIPNAKPRVLTITDIQKTVGEYFHVKLEDFKAKKRTKSVAFPRQIAMYLSRELTDASLPKIGSEFGGRDHTTVIHAHEKISKLLSTDQELQDKIQDISDKLRSLEHHHHHH | soluble |
| MSLIDLYDLRMPQRTGTYVLHEENLAIIETGPSPSVPHLLAGLKALHIDPADIRYIIVTHIHLDHAGGVGVLLEHCPNATVIVHPKGKRHLADPSRLIAGAKAVYGEQFDALFDPIVPVPEERLLVKEDGETLVLSAERTLTFYDTPGHANHHFSIYDSYSGGVFTGDTIGVFYPQLQEAGLAFCLPSTSPNQFNPEAMKQSAERLEKLNPTRIYFGHFGALDQPEEAFRQLRFWLPKFVAAGKEVIARHPEAPAAEQAKAVTKLLHNDITAFLNECSIPASSPVYKVIELDLQVCAMGIIDYWRKQRLEHHHHHH | not soluble |
| MEFIPPKRMLELIKHYSTTFKNWYSVMLGIYLHRERIKCTLRNGQTLYLTPNEAVLLAGLRIIELDCNTVKFSFNGREITLRGWRLSDPGDSFSDYWRINVKGKRVLDIGAGVGDSSIYFSTMGAKEVVAVEIDKKKIELMRENLRTNGINNVIVVDKGVGTVDNENFISWERLIKDYGPFDDAKIDCDGCERLISPFIKEIPELLIEWDSDYKDVVKNLSKNGYKIRVEHTLKNLGFIYAKRE | soluble |
| MPKVRTKDLIEQFQLELISGEEGIHRPIDTSDLSRPGIEMAGFFTYYPADRVQLLGKTELTFFDTLTSDQKQERMKALCTEETPCIIVTRNQDVPDELLQASRESGMPLLRSSQTTTRLSSRLTNYLEGKLAPTTAVHGVLVDIYGVGVLITGQSGVGKSETALELVKRGHRLVADDSVEIRQEDEDMLVGSSPDLIEHLLEIRGLGIINVMTLFGAGAVRNYKRITLVINLEIWDQKKNYDRLGLDEEKMKIIDTELTKITLPVRPGRNLAVIIEVAAMNFRLKRMGVNAAQQFSERLMSAIELGNQE | not soluble |
| QDLTLSFNHIKSAVIYSAYPLTDKQVGELVQMLNKRFDSELKISVEIEPELIGGIKVEVGDQVLDLSVQGKLSALYTTMTN | not soluble |
| MGSDKIHHHHHHMADGGSERADGRIVKMEVDYSATVDQRLPECAKLAKEGRLQEVIETLLSLEKQTRTASDMVSTSRILVAVVKMCYEAKEWDLLNENIMLLSKRRSQLKQAVAKMVQQCCTYVEEITDLPIKLRLIDTLRMVTEGKIYVEIERARLTKTLATIKEQNGDVKEAASILQELQVETYGSMEKKERVEFILEQMRLCLAVKDYIRTQIISKKINTKFFQEENTEKLKLKYYNLMIQLDQHEGSYLSICKHYRAIYDTPCIQAESEKWQQALKSVVLYVILAPFDNEQSDLVHRISGDKKLEEIPKYKDLLKLFTTMELMRWSTLVEDYGMELRKGSLESPATDVFGSTEEGEKRWKDLKNRVVEHNIRIMAKYYTRITMKRMAQLLDLSVDESEAFLSNLVVNKTIFAKVDRLAGIINFQRPKDPNNLLNDWSQKLNSLMSLVNKTTHLIAKEEMIHNLQ | not soluble |
| MAHHHHHHMSQLSASPREEPVGIPELFLQYLKAKDLKDQLAIVRAHPVLFTDDVVAALKDARAQMNETFVEVKETCRVIDAVSGSLQYTGTSVQLQQTVAKELLDEDAILKKFATSLAGLLRARETAGPAAPSTISSLATASRVSSSLGAGKSHSPGAWFTQPSLVFSVLTFLSAEEIFITAENVCRAWQTWLFLPDMSRFFWVGCVQREFPEQLQVLLQTAGDDLYQSDWRSLAMLCVTEGEQAAEAEEAEEAGDGGAVRGVVPFL | not soluble |
| MTYLETAAQFYSEVAQTPQVGLCCVQSTPLQLPGLKIPLPMQEMNYGCGTTVHPTELGKQPTVLYVGVGGGLEALQFAYFSRRPGAVIAVEPVAAMREAAARNLEMALTDNPWFDSSFVEIREGDAFNLPVADGSVDIVAQNCLFNIFEPEDLTRALKEAYRVLKPGGRLQMSDPIATSPVPAHLQQDERLRAMCLSGALTYEEYTQRIIDAGFGQIEIRARRPYRLLDSQTYNLETHLLLESLDSVSFKVPMPEDGACIFTGRTAIYAGCDAFFDDKAGHILQRGIPATVCDKTAAKLATVKPKEVIITDSTWHYNGGGCCLEHHHHHH | soluble |
| MPHQSQPGFLLPAIQHHSMQGSLPGERDVTVVGGGFGGLAAAAYLARAGASVTLLEQHDTVGGRAGVLERDGFRFDTGPSWYLMPDVFERFFDHFDHDPHDFYELTRLDPQYRVFWTDGDSATIEPNRRNAHELFESYEEGAGDALATYLDRAATNYDLAMNRVVYPDRTAFRDYASTDMLPLASRLRLFGNMDDYVSRFFDHPKLRQLLEYTLVFLGGAPHNTPALYSIMSHVDLNGNVFYPEGGIAGVVDALAELAVEQGATIETGVGVNAISGRRGEFTLATDDGTRTTDLVVNNANPAYAERELLDTGGRDHAPDYWDDQTYAPSALMFYLGVEGDVEPLAHHSLVLPPDWDGHFAQLFDDPGWPDDPAFYLSVASKTDDTVAPDGHEAVVILLPIAPGLDDTPEIRAQYRDRLLGTLAAQTGVDLRDRIVVEESACVSEFSEQFGDPGGTALGLAHTLFQTGPLRPGKRDGPDGHYYVGAYTNPGIGMPMCLISGEHVTKAVIDDDPAASGSTDPLAVPGEFNFDTPTTAD | not soluble |
